Data from patent US20250381289A1 (Genmab, published 2025).

Legend:
human EGFR-Fc = biological target: T1, human EGFR-Fc (human, UniProt P00533 25-645); assay: blocking ELISA: coated human EGFR-Fc, antibody titrated, then EGF-His (blocked ligand), anti-His-HRP
T1 construct: not shown: Fc part, not described

[1] = biological target: T2, cMET on EGFR and cMET co-expressed tumor cell lines (UniProt P08581 25-1390, limits assumed); assay: flow cytometry, EBC-1 cells (co-express EGFR and cMET; both arms contribute)
T2 construct: whole, on cells

[2] = biological target: T3, EGFR on EGFR and cMET co-expressed tumor cell lines (UniProt P00533 25-1210, limits assumed); assay: as above
T3 construct: whole, on cells

[3] = biological target: T3, EGFR on EGFR and cMET co-expressed …; assay: flow cytometry on CAL-27 cells (co-express EGFR and cMET), PE anti-human Fc; signal of the whole bispecific, not resolved by arm
[4] = biological target: T2, cMET on EGFR and cMET co-expressed …; assay: flow cytometry, EBC-1 cells (co-express EGFR and cMET; both arms contribute); remark: listed apart in the source
[5] = biological target: T3, EGFR on EGFR and cMET co-expressed …; assay: as above; remark: listed apart in the source
Human EGFR = biological target: T4, Human EGFR (human, UniProt P00533); assay: ELISA, plate coated with 100 ng/well human EGFR recombinant protein, HRP anti-human Fc, OD450
T4 construct: recombinant protein coated on the ELISA plate; also called human EGFR recombinant protein

Human cMET [6] = biological target: T5, Human cMET (human); assay: ELISA, coated human cMET, anti-human Fc-HRP
T5 construct: recombinant protein; also called human cMET recombinant protein

[7] = biological target: T2, cMET on EGFR and cMET co-expressed …; assay: flow cytometry on NCI-H292 cells (co-express EGFR and cMET), PE anti-human Fc; signal of the whole bispecific, not resolved by arm
Target sequence in this assay (P08581 25-1390 limits assumed): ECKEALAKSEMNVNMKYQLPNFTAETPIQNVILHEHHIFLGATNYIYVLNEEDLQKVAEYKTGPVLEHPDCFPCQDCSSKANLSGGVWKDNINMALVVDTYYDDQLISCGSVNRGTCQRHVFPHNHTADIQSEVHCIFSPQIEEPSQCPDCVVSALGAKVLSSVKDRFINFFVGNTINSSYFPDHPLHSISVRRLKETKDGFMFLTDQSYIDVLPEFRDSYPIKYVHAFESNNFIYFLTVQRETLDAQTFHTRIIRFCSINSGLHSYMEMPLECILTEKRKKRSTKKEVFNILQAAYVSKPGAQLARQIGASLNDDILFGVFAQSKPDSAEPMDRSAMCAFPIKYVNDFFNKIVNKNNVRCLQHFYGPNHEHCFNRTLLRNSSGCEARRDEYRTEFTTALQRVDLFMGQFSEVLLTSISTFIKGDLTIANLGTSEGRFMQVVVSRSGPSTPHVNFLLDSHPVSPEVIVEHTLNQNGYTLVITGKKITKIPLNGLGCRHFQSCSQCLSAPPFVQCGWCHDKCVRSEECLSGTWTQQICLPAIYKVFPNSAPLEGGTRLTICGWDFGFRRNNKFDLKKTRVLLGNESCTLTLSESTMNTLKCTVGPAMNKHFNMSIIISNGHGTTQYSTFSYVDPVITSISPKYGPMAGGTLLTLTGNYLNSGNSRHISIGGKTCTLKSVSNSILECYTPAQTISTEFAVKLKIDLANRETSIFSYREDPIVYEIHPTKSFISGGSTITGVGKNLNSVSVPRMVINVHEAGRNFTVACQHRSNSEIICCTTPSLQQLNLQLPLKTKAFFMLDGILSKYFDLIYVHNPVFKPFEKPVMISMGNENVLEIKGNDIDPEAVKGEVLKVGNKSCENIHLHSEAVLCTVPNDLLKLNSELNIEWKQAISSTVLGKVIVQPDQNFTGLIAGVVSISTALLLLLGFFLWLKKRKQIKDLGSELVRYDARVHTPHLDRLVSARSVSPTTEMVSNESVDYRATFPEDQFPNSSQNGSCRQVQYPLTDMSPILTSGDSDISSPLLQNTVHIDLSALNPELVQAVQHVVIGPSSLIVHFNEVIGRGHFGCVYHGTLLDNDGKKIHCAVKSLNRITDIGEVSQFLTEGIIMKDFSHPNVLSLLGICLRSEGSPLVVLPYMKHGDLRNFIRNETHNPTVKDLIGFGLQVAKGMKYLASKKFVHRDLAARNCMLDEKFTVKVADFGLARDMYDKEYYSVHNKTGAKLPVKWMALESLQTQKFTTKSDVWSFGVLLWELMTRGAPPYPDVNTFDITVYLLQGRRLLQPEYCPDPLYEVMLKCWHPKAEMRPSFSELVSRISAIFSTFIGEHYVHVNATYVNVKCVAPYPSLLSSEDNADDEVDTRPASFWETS

[8] = biological target: T3, EGFR on EGFR and cMET co-expressed …; assay: as above
[9] = biological target: T2, cMET on EGFR and cMET co-expressed …; assay: flow cytometry, MKN-45 cells (co-express EGFR and cMET; both arms contribute)
Target sequence in this assay (P08581 25-1390 limits assumed): as above

[10] = biological target: T3, EGFR on EGFR and cMET co-expressed …; assay: as above
[11] = biological target: T2, cMET on EGFR and cMET co-expressed …; assay: as above; remark: listed apart in the source
Target sequence in this assay (P08581 25-1390 limits assumed): as above

[12] = biological target: T3, EGFR on EGFR and cMET co-expressed …; assay: as above; remark: listed apart in the source
Human cMET [13] = biological target: T6, Human cMET; assay: ELISA, plate coated with 100 ng/well human cMET recombinant protein, HRP anti-human Fc, OD450
T6 construct: also called human cMET recombinant protein
T6 chain: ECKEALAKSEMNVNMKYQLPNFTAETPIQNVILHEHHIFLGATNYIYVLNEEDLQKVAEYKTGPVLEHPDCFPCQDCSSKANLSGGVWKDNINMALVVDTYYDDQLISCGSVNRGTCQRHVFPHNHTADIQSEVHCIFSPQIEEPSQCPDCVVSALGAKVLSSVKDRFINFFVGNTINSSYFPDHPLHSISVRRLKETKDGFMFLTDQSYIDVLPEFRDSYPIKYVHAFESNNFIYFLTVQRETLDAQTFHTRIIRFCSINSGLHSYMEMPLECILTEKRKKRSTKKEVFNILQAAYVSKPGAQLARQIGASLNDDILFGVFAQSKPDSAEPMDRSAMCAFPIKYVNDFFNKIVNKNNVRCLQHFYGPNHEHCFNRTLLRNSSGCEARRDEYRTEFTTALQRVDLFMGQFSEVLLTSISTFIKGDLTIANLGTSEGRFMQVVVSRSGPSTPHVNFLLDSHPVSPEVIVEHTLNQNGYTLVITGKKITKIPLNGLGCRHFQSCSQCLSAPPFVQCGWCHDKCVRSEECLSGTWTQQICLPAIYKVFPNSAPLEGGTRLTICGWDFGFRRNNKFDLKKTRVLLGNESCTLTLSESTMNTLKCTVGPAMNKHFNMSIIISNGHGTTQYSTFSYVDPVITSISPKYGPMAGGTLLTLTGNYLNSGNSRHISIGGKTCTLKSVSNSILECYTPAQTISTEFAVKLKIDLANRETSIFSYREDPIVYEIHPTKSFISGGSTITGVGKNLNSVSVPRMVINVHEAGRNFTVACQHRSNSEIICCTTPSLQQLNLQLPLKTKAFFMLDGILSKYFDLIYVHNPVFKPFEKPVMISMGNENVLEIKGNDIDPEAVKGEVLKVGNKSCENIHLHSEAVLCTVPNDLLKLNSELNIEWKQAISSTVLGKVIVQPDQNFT

[14] = biological target: T2, cMET on EGFR and cMET co-expressed …; assay: flow cytometry, HCC-827 cells (co-express EGFR and cMET; both arms contribute)
[15] = biological target: T3, EGFR on EGFR and cMET co-expressed …; assay: as above

T5 sequence (P08581 whole entry): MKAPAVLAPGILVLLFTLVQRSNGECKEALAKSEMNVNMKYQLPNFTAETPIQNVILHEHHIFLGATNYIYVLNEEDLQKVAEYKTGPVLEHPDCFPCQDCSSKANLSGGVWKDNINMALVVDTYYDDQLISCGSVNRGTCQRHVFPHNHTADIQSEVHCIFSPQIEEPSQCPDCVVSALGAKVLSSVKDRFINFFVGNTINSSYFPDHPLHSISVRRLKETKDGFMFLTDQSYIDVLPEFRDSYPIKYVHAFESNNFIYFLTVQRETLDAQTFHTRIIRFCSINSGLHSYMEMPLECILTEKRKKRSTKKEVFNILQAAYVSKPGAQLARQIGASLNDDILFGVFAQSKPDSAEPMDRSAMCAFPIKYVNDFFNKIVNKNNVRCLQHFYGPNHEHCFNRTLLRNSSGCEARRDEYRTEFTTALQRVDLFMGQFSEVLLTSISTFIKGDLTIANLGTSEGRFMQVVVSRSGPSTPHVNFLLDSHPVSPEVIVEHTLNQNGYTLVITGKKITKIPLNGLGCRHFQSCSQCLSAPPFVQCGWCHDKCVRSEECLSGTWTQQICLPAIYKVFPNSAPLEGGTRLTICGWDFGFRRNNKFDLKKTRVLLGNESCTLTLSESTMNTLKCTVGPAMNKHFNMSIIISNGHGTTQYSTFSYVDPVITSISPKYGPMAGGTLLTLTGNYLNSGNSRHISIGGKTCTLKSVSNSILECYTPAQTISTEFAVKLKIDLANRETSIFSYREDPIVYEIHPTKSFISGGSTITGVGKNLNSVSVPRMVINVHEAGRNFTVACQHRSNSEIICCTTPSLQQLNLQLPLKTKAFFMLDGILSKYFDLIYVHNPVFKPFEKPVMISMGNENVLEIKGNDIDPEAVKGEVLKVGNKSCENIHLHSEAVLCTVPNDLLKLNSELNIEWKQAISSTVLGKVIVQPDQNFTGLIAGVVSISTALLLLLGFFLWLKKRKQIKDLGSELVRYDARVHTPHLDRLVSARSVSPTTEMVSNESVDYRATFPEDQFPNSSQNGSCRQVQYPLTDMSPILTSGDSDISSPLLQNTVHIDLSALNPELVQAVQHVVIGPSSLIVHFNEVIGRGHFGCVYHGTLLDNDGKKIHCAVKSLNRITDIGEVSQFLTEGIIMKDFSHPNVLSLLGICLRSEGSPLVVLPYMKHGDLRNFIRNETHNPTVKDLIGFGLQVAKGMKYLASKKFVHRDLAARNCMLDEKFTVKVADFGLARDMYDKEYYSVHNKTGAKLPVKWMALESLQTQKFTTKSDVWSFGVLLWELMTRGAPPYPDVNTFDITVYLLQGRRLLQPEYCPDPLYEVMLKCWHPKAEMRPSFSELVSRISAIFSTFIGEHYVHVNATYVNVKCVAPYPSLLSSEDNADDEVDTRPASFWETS

B1: Amivantamab (bispecific antibody, human IgG1, kappa)
heavy 1: not shown
light 1: not shown
heavy 2: not shown
light 2: DIQMTQSPSSVSASVGDRVTITCRASQGISNWLAWFQHKPGKAPKLLIYAASSLLSGVPSRFSGSGSGTDFTLTISSLQPEDFATYYCQQANSFPITFGQGTRLEIKRTVAAPSVFIFPPSDEQLKSGTASVVCLLNNFYPREAKVQWKVDNALQSGNSQESVTEQDSKDSTYSLSSTLTLSKADYEKHKVYACEVTHQGLSSPVTKSFNRGEC
notes: Bispecific positive control
IC50 (read off the curve) (human EGFR-Fc): ~0.2 nM | EC50 (read off the curve) [1]: ~1 nM | EC50 (read off the curve) [2]: ~1 nM | EC50 (read off the curve) [3]: ~3 nM | EC50 (read off the curve) [4]: ~2 nM | EC50 (read off the curve) [5]: ~2 nM | EC50 (read off the curve) (Human EGFR): ~0.4 nM | EC50 (read off the curve) (Human cMET [6]): ~1 nM | EC50 (read off the curve) [7]: ~3 nM | EC50 (read off the curve) [8]: ~3 nM | EC50 (read off the curve) [9]: ~0.5 nM | EC50 (read off the curve) [10]: ~0.5 nM | EC50 (read off the curve) [11]: ~2 nM | EC50 (read off the curve) [12]: ~2 nM | EC50 (read off the curve) (Human cMET [13]): ~0.1 nM | EC50 (read off the curve) [14]: ~3 nM | EC50 (read off the curve) [15]: ~3 nM
